Laboratory results: patent US20230045873A1

Target: oxMIF (recombinant human MIF immobilized into microwell plates, transforming MIF to oxMIF) (human) (UniProt P14174)
Test: ELISA on immobilized MIF (oxMIF), protein L-HRP detection, mean of triplicate

oxMIF (recombinant human MIF immobilized into microwell plates, transforming MIF to oxMIF) (human), sequence (P14174 2-115 limits assumed): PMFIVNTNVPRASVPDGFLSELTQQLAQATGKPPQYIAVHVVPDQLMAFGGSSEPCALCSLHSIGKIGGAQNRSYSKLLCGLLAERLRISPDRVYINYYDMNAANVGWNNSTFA

EC50: 0.6 nM
Substance: Imalumab (C0008), anti-oxMIF monospecific antibody
